# Results published in PMC5503513, “Tandem hnRNP A1 RNA recognition motifs act in concert to repress the splicing of survival motor neuron exon 7”.
# Assays:
# hnRNP A1 RRM1 [1] = target: T1, hnRNP A1 RRM1 (UniProt P09651 2-97); assay: ITC; range, no saturation; ITC: 10 mM NaPi pH 6.5, 10 mM 2-mercaptoethanol, 30 C, protein titrated into RNA; NMR: 10 mM NaPi pH 6.5, 1 mM DTT (303 K stated for UP1-R140A:ISS-N1-u25g); details: protein: recombinant; single strand
# hnRNP A1 RRM1 D42A [2] = target: T2, hnRNP A1 RRM1 D42A (UniProt P09651 2-97, D42A); assay: as above; details: protein: recombinant; single strand
# hnRNP A1 RRM2 = hnRNP A1 RRM2 (UniProt P09651 95-196); assay: ITC; ITC: 10 mM NaPi pH 6.5, 10 mM 2-mercaptoethanol, 30 C, protein titrated into RNA; NMR: 10 mM NaPi pH 6.5, 1 mM DTT (303 K stated for UP1-R140A:ISS-N1-u25g); details: protein: recombinant; single strand
# hnRNP A1 RRM2 R140A [3] = target: T3, hnRNP A1 RRM2 R140A (UniProt P09651 95-196, R140A); assay: as above; details: protein: recombinant; single strand
# hnRNP A1 RRM2 E176Q [4] = target: T4, hnRNP A1 RRM2 E176Q (UniProt P09651 95-196, E176Q); assay: as above; details: protein: recombinant; single strand
# UP1 r1R2 [5] = target: UP1 r1R2 (UniProt P09651 1-196, F17A;F59A); assay: as above; details: protein: recombinant; single strand
# hnRNP A1 RRM2 Y167F = hnRNP A1 RRM2 Y167F (UniProt P09651 95-196, Y167F); assay: as above; details: protein: recombinant; single strand
# hnRNP A1 RRM2 M186A [6] = target: T5, hnRNP A1 RRM2 M186A (UniProt P09651 95-196, M186A); assay: as above; details: protein: recombinant; single strand
# hnRNP A1 UP1 r1R2 [7] = target: hnRNP A1 UP1 r1R2 (Homo sapiens, UniProt P09651 2-196, F17A;F59A); assay: ITC; 10 mM sodium phosphate pH 6.5, 10 mM 2-mercaptoethanol, no added salt, 30 C; RNA 5-10 uM in the cell; 1:1 fit; details: extra N-terminal Gly-Gly in PDB 2LYV (left out)
# hnRNP A1 UP1 R1r2 [8] = target: hnRNP A1 UP1 R1r2 (Homo sapiens, UniProt P09651 2-196, F108A;F150A); assay: as above; details: extra N-terminal Gly-Gly in PDB 2LYV (left out)
# hnRNP A1 RRM1 [9] = target: T1, hnRNP A1 RRM1; assay: as above; details: one extra N-terminal Ala in PDB 5MPG (left out)
# hnRNP A1 RRM2 R140A [10] = target: T3, hnRNP A1 RRM2 R140A; assay: as above; details: none in PDB 5MPL
# hnRNP A1 RRM2 E176Q [11] = target: T4, hnRNP A1 RRM2 E176Q; assay: as above; details: none in PDB 5MPL
# hnRNP A1 RRM1 R92A [12] = target: T6, hnRNP A1 RRM1 R92A (UniProt P09651 2-97, R92A); assay: as above; details: one extra N-terminal Ala in PDB 5MPG (left out)
# hnRNP A1 RRM2 M186A [13] = target: T5, hnRNP A1 RRM2 M186A; assay: as above; details: none in PDB 5MPL
# hnRNP A1 RRM1 D42A [14] = target: T2, hnRNP A1 RRM1 D42A; assay: as above; details: one extra N-terminal Ala in PDB 5MPG (left out)
# hnRNP A1 RRM1 R92A [15] = target: T6, hnRNP A1 RRM1 R92A; assay: ITC; range, no saturation; ITC: 10 mM NaPi pH 6.5, 10 mM 2-mercaptoethanol, 30 C, protein titrated into RNA; NMR: 10 mM NaPi pH 6.5, 1 mM DTT (303 K stated for UP1-R140A:ISS-N1-u25g); details: protein: recombinant; single strand
# hnRNP A1 RRM1 F23A [16] = target: T7, hnRNP A1 RRM1 F23A (UniProt P09651 2-97, F23A); assay: ITC; second listed measurement; ITC: 10 mM NaPi pH 6.5, 10 mM 2-mercaptoethanol, 30 C, protein titrated into RNA; NMR: 10 mM NaPi pH 6.5, 1 mM DTT (303 K stated for UP1-R140A:ISS-N1-u25g); details: protein: recombinant; single strand
# hnRNP A1 RRM1 [17] = target: T1, hnRNP A1 RRM1; assay: ITC; first listed measurement; ITC: 10 mM NaPi pH 6.5, 10 mM 2-mercaptoethanol, 30 C, protein titrated into RNA; NMR: 10 mM NaPi pH 6.5, 1 mM DTT (303 K stated for UP1-R140A:ISS-N1-u25g); details: protein: recombinant; single strand
# UP1 R1r2 [18] = target: UP1 R1r2 (UniProt P09651 1-196, F108A;F150A); assay: ITC; ITC: 10 mM NaPi pH 6.5, 10 mM 2-mercaptoethanol, 30 C, protein titrated into RNA; NMR: 10 mM NaPi pH 6.5, 1 mM DTT (303 K stated for UP1-R140A:ISS-N1-u25g); details: protein: recombinant; single strand
# hnRNP A1 RRM1 F23A [19] = target: T7, hnRNP A1 RRM1 F23A; assay: as above; details: protein: recombinant; single strand
# hnRNP A1 RRM1 [20] = target: T1, hnRNP A1 RRM1; assay: as above; details: protein: recombinant; single strand
# hnRNP A1 RRM1 D42A [21] = target: T2, hnRNP A1 RRM1 D42A; assay: as above; details: protein: recombinant; single strand
# hnRNP A1 RRM1 F23A [22] = target: T7, hnRNP A1 RRM1 F23A; assay: ITC; 10 mM sodium phosphate pH 6.5, 10 mM 2-mercaptoethanol, no added salt, 30 C; RNA 5-10 uM in the cell; 1:1 fit; details: one extra N-terminal Ala in PDB 5MPG (left out)
# hnRNP A1 RRM1 R55A = hnRNP A1 RRM1 R55A (UniProt P09651 2-97, R55A); assay: as above; details: one extra N-terminal Ala in PDB 5MPG (left out)
# Chain of hnRNP A1 RRM1 R55A (P09651 2-97 R55A): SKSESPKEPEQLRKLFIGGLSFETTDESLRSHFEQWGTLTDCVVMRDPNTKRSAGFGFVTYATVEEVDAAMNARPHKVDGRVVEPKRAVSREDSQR
# T2 sequence (P09651 2-97 D42A): as the sequence (P09651 2-97 R55A) above, with D41A, A54R counted along it
# T1 sequence (P09651 2-97): as the sequence (P09651 2-97 R55A) above, with A54R counted along it
# T6 sequence (P09651 2-97 R92A): as the sequence (P09651 2-97 R55A) above, with A54R, R91A counted along it
# T4 sequence (P09651 95-196 E176Q): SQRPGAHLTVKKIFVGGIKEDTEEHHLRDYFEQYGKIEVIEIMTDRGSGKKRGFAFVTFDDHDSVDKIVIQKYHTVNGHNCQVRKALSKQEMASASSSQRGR
# T3 sequence (P09651 95-196 R140A): as the sequence (P09651 95-196 E176Q) above, with R46A, Q82E counted along it
# T7 sequence (P09651 2-97 F23A): as the sequence (P09651 2-97 R55A) above, with F22A, A54R counted along it
# Chain of UP1 r1R2 (P09651 1-196 F17A/F59A): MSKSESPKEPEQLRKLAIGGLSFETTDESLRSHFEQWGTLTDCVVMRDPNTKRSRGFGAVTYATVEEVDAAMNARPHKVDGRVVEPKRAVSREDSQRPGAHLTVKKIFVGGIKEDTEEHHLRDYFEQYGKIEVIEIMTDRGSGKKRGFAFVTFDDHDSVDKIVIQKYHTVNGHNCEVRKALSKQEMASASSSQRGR
# Chain of hnRNP A1 UP1 R1r2 (P09651 2-196 F108A/F150A): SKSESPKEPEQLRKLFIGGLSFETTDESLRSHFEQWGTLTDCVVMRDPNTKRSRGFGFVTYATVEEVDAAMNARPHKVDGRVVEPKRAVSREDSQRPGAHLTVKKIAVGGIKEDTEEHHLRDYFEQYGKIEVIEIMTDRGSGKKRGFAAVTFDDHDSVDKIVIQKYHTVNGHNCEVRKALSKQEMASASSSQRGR
# Chain of hnRNP A1 UP1 r1R2 (P09651 2-196 F17A/F59A): as the sequence (P09651 2-196 F108A/F150A) above, with F16A, F58A, A107F, A149F counted along it
# Chain of hnRNP A1 RRM2 (P09651 95-196): as the sequence (P09651 95-196 E176Q) above, with Q82E counted along it
# T5 sequence (P09651 95-196 M186A): as the sequence (P09651 95-196 E176Q) above, with Q82E, M92A counted along it
# Chain of UP1 R1r2 (P09651 1-196 F108A/F150A): as the sequence (P09651 1-196 F17A/F59A) above, with A17F, A59F, F108A, F150A counted along it
# Chain of hnRNP A1 RRM2 Y167F (P09651 95-196 Y167F): as the sequence (P09651 95-196 E176Q) above, with Y73F, Q82E counted along it
Binder,Kd (hnRNP A1 RRM2) [nM],Kd (hnRNP A1 RRM2 R140A [3]) [nM],Kd (hnRNP A1 RRM2 E176Q [4]) [nM],Kd (UP1 r1R2 [5]) [nM],Kd (hnRNP A1 UP1 r1R2 [7]) [nM],Kd (hnRNP A1 UP1 R1r2 [8]) [nM],Kd (hnRNP A1 RRM2 R140A [10]) [nM],Kd (hnRNP A1 RRM1 R92A [12]) [nM],Kd (hnRNP A1 RRM1 D42A [14]) [nM],further results
UUAGUU (ssRNA),125 ± 9,433 ± 26,286 ± 12,142 ± 9,142 ± 9,105 ± 8,433 ± 26,> 10000,~2690,Kd (hnRNP A1 RRM1 [1]): ~5200 nM; Kd (hnRNP A1 RRM1 D42A [2]): ~2240 nM; Kd (hnRNP A1 RRM2 Y167F): 118 ± 9 nM; Kd (hnRNP A1 RRM2 M186A [6]): 253 ± 15 nM; Kd (hnRNP A1 RRM1 [9]): ~5990 nM; Kd (hnRNP A1 RRM2 E176Q [11]): 286 ± 12 nM; Kd (hnRNP A1 RRM2 M186A [13]): 253 ± 15 nM
UUAGGUC (ssRNA),64 ± 8,195 ± 12,116 ± 39,56 ± 4,56.2 ± 4,45 ± 2,195 ± 12,~2850,787 ± 42,Kd (hnRNP A1 RRM1 R92A [15]): ~2240 nM; Kd (hnRNP A1 RRM1 F23A [16]): 193 ± 11 nM; Kd (hnRNP A1 RRM1 [17]): 292 ± 17 nM; Kd (UP1 R1r2 [18]): 47 ± 2 nM; Kd (hnRNP A1 RRM1 F23A [19]): 225 ± 13 nM; Kd (hnRNP A1 RRM1 [20]): 288 ± 16 nM; Kd (hnRNP A1 RRM1 D42A [21]): 787 ± 42 nM; Kd (hnRNP A1 RRM1 F23A [22]): 209 ± 13 nM; Kd (hnRNP A1 RRM1 R55A): > 10000 nM
